B1: NEK8 (parent)
chain: VTIKHVACGDFFTACLTDRGIIMT
B2: ZNF511 (parent)
chain: AAPFRFVARPVRFPREHQFFEDGD

Variants of: B1
Experiment: protein stability index of a GFP-peptide fusion (GPS, HEK-293T) (PSI 1-6); higher = more stable
Conditions: c terminus: a fixed tail appended
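Note: lentivirally expressed fusions sorted by FACS into six bins by GFP to DsRed ratio, PSI derived from sequencing read proportions per bin multiplied by bin number.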

Protein stability index of substitutions, site by site:
L16: M 2.15 | A 4.14 | S 3.85 | H 2.88 | Y 2.13 | P 2.59 | D 1.91 | R 2.33 | Q 3.06 | C 2.43 | T 1.76 | F 3.61 | E 1.89 | I 2.3 | K 3.12
M23: A 1.6 | G 3.62 | C 2.67 | L 3.85 | T 1.89 | P 2.9 | V 2.73 | R 1.41 | S 2.56 | N 2.3 | K 1.91 | I 2.77 | Y 3.28 | E 2.81 | H 2.61 | Q 1.47 | D 3.49
F11: P 3.05 | I 4.45 | S 2.05 | Y 2.81 | N 2.85 | Q 3.07 | M 3.07 | T 2.82 | V 2.76 | K 2.13 | W 4.01 | L 2.23
T13: S 1.28 | Y 3.95 | V 2.64 | I 1.31 | Q 2.47 | K 3.17 | L 2.11 | N 1.86 | M 2.39 | P 3.32 | D 3.61 | C 2.13 | F 2.81 | H 3.07
I22: L 4.46 | C 3.72 | D 3.93 | K 3.62 | F 4.9 | Y 2.39 | E 3.75 | Q 3.88 | P 2.67 | V 2.46 | A 2.38 | W 4.62 | N 3.67 | G 2.98
G20: C 2.94 | L 2.91 | Y 2.3 | K 2.35 | D 2.04 | H 3.22 | N 2.75 | M 3.22 | T 1.48 | I 2.82 | P 3.42 | A 3.45 | V 1.72 | W 2.57 | S 2.84 | Q 2.06 | F 2.21
T17: K 4.32 | I 4.6 | P 2.64 | R 3.53 | G 1.94 | L 3.17 | F 3.49 | S 3.16 | M 3.48 | N 4.51 | V 3.2 | D 2.27 | C 2.27 | H 3.72 | Q 3.69
A14: T 3.17 | Q 1.12 | D 1.98 | R 2.34 | M 3.53 | I 2.87 | V 2.55 | G 2.51 | L 2.31 | Y 2.65 | W 2.01 | P 2.68 | K 1.9 | C 2.65 | H 1.86 | E 1.47
R19: N 3.56 | T 2.77 | C 2.48 | I 2.96 | E 3.52 | P 4.49 | S 2.97 | Q 1.92 | G 3.25 | A 2.01 | V 2.56 | Y 2.32 | M 2.32 | H 1.81 | K 3.78 | W 3.11 | D 3.29
C15: K 2.58 | S 3.9 | D 3.14 | W 3.09 | E 3.04 | Q 2.59 | I 3.26 | R 2.91 | F 3.35 | L 2.37 | T 3.74 | M 4.25 | Y 2.42 | H 1.61 | V 2.5 | N 4.23
D18: G 3.08 | K 4.11 | N 3.07 | T 2.72 | V 3.85 | F 4.13 | R 5.42 | C 2.02 | A 4.82 | Y 3.05 | P 3.31 | S 4.67 | L 2.09 | W 3.08
I21: P 2.25 | M 2.95 | D 2.13 | A 1.79 | K 2.78 | F 2.9 | L 2.25 | H 2.36 | G 3.21 | N 2.87 | V 3.14 | T 2.48 | E 3.51 | C 2.7 | Q 2.92 | W 2.31 | R 2.49 | S 2.5
T24: C 2.87 | A 2.87 | R 2.45 | L 4.18 | E 3.11 | I 3.19 | K 2.93 | Y 2.3 | S 2.33 | F 2.64 | V 2.81 | G 3.47 | D 3.14 | H 1.84 | N 2.41
F12: M 2.61 | C 1.53 | L 1.79 | E 1.72 | R 2.21 | K 1.81 | G 2.17 | T 3.71 | P 1.8 | N 2.67 | Y 2.02 | I 3.98 | V 2.77 | W 2.6 | D 2.2 | S 3.05

Variants of: B2
Experiment: as above
Conditions: c terminus: a fixed tail appended

Protein stability index, by site and new letter:
F4: V 4.24 | S 4.53 | M 3.34 | W 2.48 | G 4.57 | A 4.66 | H 4.58 | P 4.84 | Y 3.68 | L 3.65 | Q 4.68 | I 3.9 | K 4.41 | C 3.4 | N 4.37 | T 4.36 | R 3.94 | E 4.46 | D 4.77
P3: H 2.59 | R 2.65 | L 1.93 | A 2.37 | T 2.1 | S 2.76 | D 1.06 | G 1.66 | I 1.34 | M 1.62 | K 1.81 | W 3.21 | Y 2.47 | E 1.61 | F 1.53 | Q 2.26 | V 1.53 | C 1.36 | N 2.04
F6: L 3.47 | I 3.38 | W 3.41 | G 4.43 | A 4.3 | N 4.55 | H 4.18 | E 4.45 | P 4.83 | S 4.26 | Y 1.69 | T 4.03 | V 3.89 | R 4.03 | C 2.81 | D 4.19 | K 4.36 | Q 4.94 | M 4.13
V7: E 4.61 | D 3.73 | H 2.04 | F 3.69 | A 3.9 | C 2.65 | G 3.74
A2: W 1.47 | C 2.05 | I 2.69 | E 2.8 | D 3.25 | L 1.32 | H 2.48 | Q 2.1 | T 2.28 | R 1.93 | Y 2.42 | F 1.85 | P 2.32 | N 3.12 | S 3.91 | M 2.11 | V 1.53 | G 2.36 | K 2.01
R5: E 4.26 | F 2.18 | C 3.05 | I 2.67 | Y 2.15 | K 3.91 | T 4.17 | W 1.89 | A 3.53 | D 4.8 | S 4.16 | N 4.22 | L 2.63 | P 3.92 | H 3.3 | G 3.68 | V 3.58 | Q 4.61 | M 3.25
A1: D 2.2 | C 2.39 | I 1.82 | N 2.51 | M 3.08 | W 2.31 | K 2.02 | R 1.93 | P 2.29 | Y 4.23 | E 2.04 | F 3.42 | H 1.63 | Q 2.61 | S 2.07 | T 1.22

Source: the supplement of paper PMC10567573
